From article PMC5389812, “Rv3634c from Mycobacterium tuberculosis H37Rv encodes an enzyme with UDP-Gal/Glc and UDP-GalNAc 4-epimerase activities” (PLoS ONE, 2017)

Target: the molecule itself
Assay: SEC; Superdex 200 16/600 GL column, FPLC buffer (20 mM Tris pH 8.0, 100 mM NaCl); calibrated with conalbumin, ovalbumin, carbonic anhydrase, ribonuclease A and aprotinin; molecular weight from Kav

B1: His-tagged Rv3634c (H3634), wild type, UDP-Gal/Glc and UDP-GalNAc 4-epimerase from Mycobacterium tuberculosis H37Rv (enzyme)
chain: MRALVTGAAGFIGSTLVDRLLADGHSVVGLDNFATGRATNLEHLADNSAHVFVEADIVTADLHAILEQHRPEVVFHLAAQIDVRRSVADPQFDAAVNVIGTVRLAEAARQTGVRKIVHTSSGGSIYGTPPEYPTPETAPTDPASPYAAGKVAGEIYLNTFRHLYGLDCSHIAPANVYGPRQDPHGEAGVVAIFAQALLSGKPTRVFGDGTNTRDYVFVDDVVDAFVRVSADVGGGLRFNIGTGKETSDRQLHSAVAAAVGGPDDPEFHPPRLGDLKRSCLDIGLAERVLGWRPQIELADGVRRTVEYFRHKHTD
notes: the protein is called H3634 (His-tagged Rv3634c) in the size exclusion experiment; also called WT; WT H3634; not shown: His6, N-terminal, kept
stoichiometry N: 2
